This note sets out measurements from patent US20200055951A1 (DONG A UNIVERSITY RESEARCH FOUNDATION FOR INDUSTRY ACADEMY …, published 2020).

In one assay the target is T1, PAUF-His protein (UniProt Q96DA0 17-172, limits assumed).
T1 construct: not shown: His tag
T1 sequence (looked up): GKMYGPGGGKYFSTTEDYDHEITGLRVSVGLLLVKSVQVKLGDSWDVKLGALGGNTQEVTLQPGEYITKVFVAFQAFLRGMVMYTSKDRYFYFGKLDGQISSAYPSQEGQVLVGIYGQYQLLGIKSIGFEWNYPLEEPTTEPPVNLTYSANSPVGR
In words: indirect ELISA titration on PAUF-His, anti-human Fc-HRP; column head Kd (10^-9 M). On the procedure:
Specifically, indirect ELISA was performed. An immuno-plate was coated with the PAUF-His protein and treated with each antibody at different concentrations, and the results were analyzed using the anti-human Fc-HRP capable of recognizing the constant region of human antibody as the secondary antibody. In particular, as the concentration of each antibody increases, the OD value increases.
A general note: ELISA stands for enzyme-linked immunosorbent assay.

In assay [1] the target is T2, pancreatic adenocarcinoma upregulated factor (PAUF) protein (UniProt Q96DA0 17-172, limits assumed).
T2 construct: no tag is mentioned there; also called Antigen PAUF
T2 sequence (looked up): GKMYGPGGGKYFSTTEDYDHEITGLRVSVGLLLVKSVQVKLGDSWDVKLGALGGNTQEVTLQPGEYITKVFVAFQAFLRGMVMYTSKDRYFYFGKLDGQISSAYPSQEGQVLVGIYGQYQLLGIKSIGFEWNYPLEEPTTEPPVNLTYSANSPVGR
Kind of assay: indirect ELISA, PAUF-coated plate, HRP-labeled anti-mouse antibody. As to the method:
Specifically, the affinity of the antigen-antibody was tested using indirect ELISA. The PAUF-coated immuno-plate was treated with the four kinds of antibodies (2H2, 4E6, 11 G6, and 20C5) at different concentrations and the OD values were measured using the HRP-labeled anti-mouse antibody. In particular, as the OD value becomes higher, the affinity of the antibody for the PAUF becomes higher. Additionally, for the measurement of the nonspecific binding of an anti-PAUF mouse monoclonal antibody, which has a high affinity for PAUF, to other antigenic proteins, the immuno-plate was coated with PAUF and unspecified antigens so as to perform indirect ELISA.

The target in assay [2] is T2, pancreatic adenocarcinoma upregulated …. In words: SPR, PAUF immobilized, antibody in flow at different concentrations. On the procedure: Specifically, the antigen-antibody binding affinity was measured using the SPR method. Antigen PAUF was immobilized on the surface of a thin metal film and the antibody was diluted at different concentrations and allowed to pass through the metal surface. The antigen-antibody binding affinity was measured by measuring the time required for binding and dissociation between antigens and antibodies.
A general note: Surface plasmon resonance follows binding to a sensor surface in real time, without labels.

B1: cPMAb22 (chimeric antibody of 2H2) (antibody, V domains shown)
VH: QVQLKQSGAELVRPGALVKLSCKASGFNIKDYYMHWVKQRPEQGLEWIGWIDPENGNTIYDPKFQGKASITADTSSNTAYLQLSSLTSEDTAVYYCARRAITTATAWFAYWGQGTLVTVSA
VL: DIVMTQSPSSLAVSAGEKVTMSCKSSQSLLNSRTRKNYLAWYQQKPGQSPKLLIYWASTRESGVPDRFTGSGSGTDFTLTISSVQAEDLAVYYCKQSYNLYTFGAGTKLELK
notes: Mouse variable regions of 2H2 on human heavy and light chain constant regions (kappa light chain implied by the anti-human kappa secondary antibody); Expressed in HEK293 cells
Consider B1, for which, in the assay with PAUF-His protein, the Kd (in general, the equilibrium constant for the complex coming apart) was 0.01 nM.

B2: 20C5 (anti-PAUF protein mouse antibody) (antibody, V domains shown)
VH: QVQLKESGAELVRPGALVKLSCKASGFNIKDYYMHWVKQRPEQGLEWIGWIDPEHGNTIYDPKFQGKASLTADTSSNTAYLQLSSLTSEDTAVYYCARRGWLPAWFAYWGQGTLVTVSA
VL: DIVMTQSPSSLAVSAGEKVTLSCKSSQSLLNSRTRKNYLAWYQQKPGQSPKLLIYWASTRESGVPDRFTGSGSGTDFTLTISSVQAEDLAVYYCKQSYNLYTFGGGTKLEIK
notes: Mouse monoclonal antibody
Take B2: the EC50 (read off the curve) – broadly, the midpoint of the concentration-response curve – in assay [1] was around 0.02 µg/mL.

B3: 2H2 (anti-PAUF protein mouse antibody) (antibody, V domains shown)
VH: QVQLKQSGAELVRPGALVKLSCKASGFNIKDYYMHWVKQRPEQGLEWIGWIDPENGNTIYDPKFQGKASITADTSSNTAYLQLSSLTSEDTAVYYCARRAITTATAWFAYWGQGTLVTVSA
VL: DIVMTQSPSSLAVSAGEKVTMSCKSSQSLLNSRTRKNYLAWYQQKPGQSPKLLIYWASTRESGVPDRFTGSGSGTDFTLTISSVQAEDLAVYYCKQSYNLYTFGAGTKLELK
notes: Mouse monoclonal antibody; also called 21-12 [sic]
Regarding B3, the “EC50 (read off the curve)” value in assay [1] was around 0.05 µg/mL.

B4: cPMAb205 (chimeric antibody of 20C5) (antibody, V domains shown)
VH: QVQLKESGAELVRPGALVKLSCKASGFNIKDYYMHWVKQRPEQGLEWIGWIDPEHGNTIYDPKFQGKASLTADTSSNTAYLQLSSLTSEDTAVYYCARRGWLPAWFAYWGQGTLVTVSA
VL: DIVMTQSPSSLAVSAGEKVTLSCKSSQSLLNSRTRKNYLAWYQQKPGQSPKLLIYWASTRESGVPDRFTGSGSGTDFTLTISSVQAEDLAVYYCKQSYNLYTFGGGTKLEIK
notes: Mouse variable regions of 20C5 on human heavy and light chain constant regions (kappa light chain implied by the anti-human kappa secondary antibody); Expressed in HEK293 cells
Regarding B4, binding with PAUF-His protein was put at a Kd of 0.03 nM.

B5: hPMAb22 (anti-PAUF protein humanized antibody) (antibody, V domains shown)
VH: QVQLVQSGAEVKKPGASVKVSCKASGFNIKDYYMHWVRQAPGQGLEWMGWIDPENGNTNYAQKFQGRVTMTRDTSISTAYMELSRLRSDDTAVYYCARRAITTATAWFAYWGQGTLVTVSS
VL: DIVMTQSPDSLAVSLGERATINCKSSQSLLNSRTRKNYLAWYQQKPGQPPKLLIYWASTRESGVPDRFSGSGSGTDFTLTISSLQAEDVAVYYCKQSYNLYTFGQGTKVEIK
notes: CDR-grafted humanized antibody with human constant regions; Expressed in HEK293 cells; also called 2H2-VH1/VL1; 2H2-VH1-VL1
The molecule B5 had a Kd in assay [2] of 0.194 nM.
